The source of these data is PMC8262862, “A Prevalent Focused Human Antibody Response to the Influenza Virus Hemagglutinin Head Interface” (mBio, 2021).

The chains are these.
B1: D1 H1-17/H3-14 Fab, His-tagged (binding studies) (Fab, V domains shown)
VH: QVQLQESGPGLVKPSESLSLTCSVSGGSVSSNLHYWSWIRQLPGKGLEWIGYISYTGSTKYNPSLNGRVTLSIDASKNQFSLELSSVTAADTAVYYCARDFFEKLIADDLNAFDIWGQGTMVTVSG
VL: DIRVTQSPSSLSASVGDRVTITCRASQSISRSLNWYQQRPGKAPKFLIYAASNLQSGVPSRFSGGGSGTDFTLTISSLQPEDFATYYCQETYSRTFGQGTKADIK
notes: not shown: His6, C-terminal, kept
B2: D2 H1-1/H3-1 Fab, His-tagged (binding studies) (Fab, V domains shown)
VH: QVQLVQSGGGLVRPGGSLRLSCAASGFTFSSAWMTWVRQAPGKGLEWVANIKEDGSEKYYVDSVKGRFSISRDNAKNSLYLQISSLRAEDTAVYYCARRFVERLWGQSKPYDAVDIWGQGTMVTVSG
VL: DIQMTQSPSSLSASVGDRVTITCRASQSISNYLNWYQQKPGKAPKLLIYVASNLQSGVPSRFSGSGSGTDFALTISSLQPEDFASYYCQQSYSPVTTFGGGTKVEIK
notes: as for B1
B3: H2214 Fab, His tag removed (competitor in BLI) (Fab, V domains shown)
VH: EVQLLESGGGLVQPGGSLRLSCAASGFTFNHYAMTWVRQAPGKGLEWVASSSGSGRSTYYTDSVKGRFSVSRDNSKNTLYLQMNSLRAEDTAVYYCAKSSNYYGSGSYSPDDYYHMDVWGQGTTVTVSG
VL: EIVMTQSPDTLSVSPGERATLSCRASESISSNLAWYQQKPGQVPRLLIYGASTRATGVPARFTGSGSGTEFTLTISSLQSEDFAVYYCQQYNNRLPYTFGQGTKLEIK

The target in the assay is T1, HA head domain of A/Texas/50/2012(H3N2), monomeric (Influenza A virus A/Texas/50/2012(H3N2), strain).
T1 construct: also called monomeric HA heads
As to the kind of experiment: BLI. As to conditions: both partners purified.
For the molecule B1, the binding result was “binds”.

On to B2, for which the binding result was “binds”.

As to B3, the binding result was “binds”.
